The record followed here is publication PMC4310589.

The target of the experiment is purified recombinant full-length PNKP (human) (UniProt Q96T60).

In the case of “ATXN3-Q29 (WT with 29 polyQ repeats) (from UniProt P54252 1-361) (natural protein)”, the 3'-phosphatase activity of PNKP (50 fmol) in vitro with 25-400 fmol ATXN3-Q29: stimulation worked out at 4 fold.

Consider “ATXN3-Q72 (the pathological form with 72 polyQ repeats) (from UniProt P54252 1-361) (natural protein)”, for which the 3'-phosphatase activity of PNKP (50 fmol) in vitro with 50-200 fmol ATXN3-Q72: decrease came out at 3.5 fold.
